From publication PMC4255277
Where two headings read alike, the source gives them in different places.

Experiments:
[1] = molecular target: melanocortin-4 receptor (zebrafish) (zebrafish) (UniProt B0V1P1); assay: competition binding assay on cells
[2] = molecular target: melanocortin-4 receptor (zebrafish) (zebrafish) (UniProt B0V1P1); assay: competition binding assay on cells; remark: listed apart in the source

Sequence of UniProt B0V1P1 (B0V1P1 whole entry): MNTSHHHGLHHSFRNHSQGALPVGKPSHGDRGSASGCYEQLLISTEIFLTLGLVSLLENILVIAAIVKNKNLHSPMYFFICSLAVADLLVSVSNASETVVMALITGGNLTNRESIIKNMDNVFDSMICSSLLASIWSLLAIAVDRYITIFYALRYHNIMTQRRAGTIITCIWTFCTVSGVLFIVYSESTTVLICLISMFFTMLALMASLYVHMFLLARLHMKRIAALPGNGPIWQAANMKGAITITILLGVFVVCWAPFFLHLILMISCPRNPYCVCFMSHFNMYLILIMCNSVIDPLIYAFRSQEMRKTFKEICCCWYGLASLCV

α–melanocyte-stimulating hormone (peptide)
IC50 [1]: 50 nM
IC50 [2]: 45 nM
